{"source": "patent US20210070875A1", "key": {"[1]": {"target": "C5aR extracellular N-terminus polypeptide (UniProt P21730)", "experiment": "ELISA, polypeptide coated at 1.0 µg/mL"}, "C5aR polypeptide-03": {"target": "C5aR polypeptide-03 (UniProt P21730)", "experiment": "ELISA, polypeptide coated at 1.0 µg/mL"}, "C5aR polypeptide-04": {"target": "C5aR polypeptide-04 (UniProt P21730)", "experiment": "ELISA, polypeptide coated at 1.0 µg/mL"}, "C5aR polypeptide-05": {"target": "C5aR polypeptide-05 (UniProt P21730)", "experiment": "ELISA, polypeptide coated at 1.0 µg/mL"}, "human C5aR (human) [2]": {"target": "human C5aR (human) (UniProt P21730)", "sequence (P21730 other isoform, or with tags, fused parts or gaps)": "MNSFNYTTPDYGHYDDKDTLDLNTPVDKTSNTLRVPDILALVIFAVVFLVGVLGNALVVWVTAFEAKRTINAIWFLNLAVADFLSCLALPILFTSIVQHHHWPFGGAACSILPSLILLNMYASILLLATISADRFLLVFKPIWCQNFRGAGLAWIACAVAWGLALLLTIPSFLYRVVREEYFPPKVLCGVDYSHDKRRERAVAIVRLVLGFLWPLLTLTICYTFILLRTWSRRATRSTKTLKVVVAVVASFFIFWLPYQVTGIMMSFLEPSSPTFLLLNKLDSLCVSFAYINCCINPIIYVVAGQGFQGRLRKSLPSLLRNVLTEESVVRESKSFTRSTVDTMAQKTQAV", "experiment": "cell-based or functional assay"}, "human C5aR (human) [3]": {"target": "human C5aR (human) (UniProt P21730)", "experiment": "FACS, CHOK1-hC5aR cells, 0.0007 nM antibody"}, "human C5aR (human) [4]": {"target": "human C5aR (human) (UniProt P21730)", "experiment": "FACS, CHOK1-hC5aR cells, 0.0067 nM antibody"}, "human C5aR (human) [5]": {"target": "human C5aR (human) (UniProt P21730)", "experiment": "FACS, CHOK1-hC5aR cells, 0.0666 nM antibody"}, "human C5aR (human) [6]": {"target": "human C5aR (human) (UniProt P21730)", "experiment": "FACS, CHOK1-hC5aR cells, 0.6660 nM antibody"}, "human C5aR (human) [7]": {"target": "human C5aR (human) (UniProt P21730)", "experiment": "FACS, CHOK1-hC5aR cells, 6.6600 nM antibody"}, "human C5aR (human) [8]": {"target": "human C5aR (human) (UniProt P21730)", "experiment": "FACS, CHOK1-hC5aR cells, 66.6000 nM antibody"}, "human C5aR (human) [9]": {"target": "human C5aR (human) (UniProt P21730)", "experiment": "FACS, CHOK1-hC5aR cells, 666.0000 nM antibody"}, "human C5aR (human) [10]": {"target": "human C5aR (human) (UniProt P21730)", "experiment": "FACS, CHOK1-hC5aR cells, 0.0000 nM antibody (background)"}}, "note": "Values joined by “and” are separate entries in the source; they are usually repeats but may differ in a detail not shown here. Identical values can stand only once."}
{"substance": "IgG control (human IgG) (antibody)", "values": [{"measurement": "OD450 nm", "setting": "[1]", "result": 0.07, "unit": "OD450 nm"}, {"measurement": "OD450 nm", "setting": "C5aR polypeptide-03", "result": 0.07, "unit": "OD450 nm"}, {"measurement": "OD450 nm", "setting": "C5aR polypeptide-04", "result": 0.06, "unit": "OD450 nm"}, {"measurement": "OD450 nm", "setting": "C5aR polypeptide-05", "result": 0.07, "unit": "OD450 nm"}]}
{"substance": "mIgG control (murine IgG) (antibody)", "values": [{"measurement": "C5a-induced human neutrophil migration, Celltiter-Glo fluorescence intensity value, Parallel sample 1 (fluorescence intensity)", "setting": "human C5aR (human) [2]", "result": 5170}, {"measurement": "C5a-induced human neutrophil migration, Celltiter-Glo fluorescence intensity value, Parallel sample 2 (fluorescence intensity)", "setting": "human C5aR (human) [2]", "result": 5000}, {"measurement": "C5a-induced human neutrophil migration, Celltiter-Glo fluorescence intensity value, Parallel sample 3 (fluorescence intensity)", "setting": "human C5aR (human) [2]", "result": 2580}, {"measurement": "C5a-induced human neutrophil migration, Celltiter-Glo fluorescence intensity value, Parallel sample 4 (fluorescence intensity)", "setting": "human C5aR (human) [2]", "result": 2640}, {"measurement": "C5a-mediated calcium flow signal, FLIPR, antibody 0.0 µg/mL", "setting": "human C5aR (human) [2]", "result": "1870 MFI and 1690 MFI"}, {"measurement": "C5a-mediated calcium flow signal, FLIPR, antibody 0.01 µg/mL", "setting": "human C5aR (human) [2]", "result": "2110 MFI and 1890 MFI"}, {"measurement": "C5a-mediated calcium flow signal, FLIPR, antibody 0.1 µg/mL", "setting": "human C5aR (human) [2]", "result": "2080 MFI and 1740 MFI"}, {"measurement": "C5a-mediated calcium flow signal, FLIPR, antibody 0.4 µg/mL", "setting": "human C5aR (human) [2]", "result": "1920 MFI and 1610 MFI"}, {"measurement": "C5a-mediated calcium flow signal, FLIPR, antibody 1.1 µg/mL", "setting": "human C5aR (human) [2]", "result": "1830 MFI and 1790 MFI"}, {"measurement": "C5a-mediated calcium flow signal, FLIPR, antibody 3.3 µg/mL", "setting": "human C5aR (human) [2]", "result": "1870 MFI and 1840 MFI"}, {"measurement": "C5a-mediated calcium flow signal, FLIPR, antibody 10.0 µg/mL", "setting": "human C5aR (human) [2]", "result": "1730 MFI and 1850 MFI"}, {"measurement": "C5a-mediated calcium flow signal, FLIPR, antibody 30.0 µg/mL", "setting": "human C5aR (human) [2]", "result": 1590, "unit": "MFI"}, {"measurement": "MFI", "setting": "human C5aR (human) [3]", "result": "2.78 MFI and 2.03 MFI"}, {"measurement": "MFI", "setting": "human C5aR (human) [4]", "result": "2.79 MFI and 2.01 MFI"}, {"measurement": "MFI", "setting": "human C5aR (human) [5]", "result": "2.81 MFI and 2 MFI"}, {"measurement": "MFI", "setting": "human C5aR (human) [6]", "result": "2.96 MFI and 1.99 MFI"}, {"measurement": "MFI", "setting": "human C5aR (human) [7]", "result": "2.88 MFI and 2.01 MFI"}, {"measurement": "MFI", "setting": "human C5aR (human) [8]", "result": "3.18 MFI and 2.14 MFI"}, {"measurement": "MFI", "setting": "human C5aR (human) [9]", "result": "3.22 MFI and 2.21 MFI"}, {"measurement": "MFI", "setting": "human C5aR (human) [10]", "result": "2.69 MFI and 1.99 MFI"}]}
